Results: patent US20250257130A1 (NONA BIOSCIENCES SUZHOU, published 2025)

What was measured:
[1] = target: T1, Human ROR1-ECD-his (Acro Biosystems RO1-H522y) (human, UniProt Q01973 30-406); assay: BLI in-tandem, row = 1st Ab; competitor (2nd Ab): PR000374
T1 construct: extracellular domain; bought protein; also called hROR1-ECD-his; hu-ROR1-ECD-his
From the text: To determine if anti-ROR1 antibodies bind to human ROR1 on different or approximate binding epitopes, the ForteBio Octet® RED96e platform was used to perform epitope competition experiments on the anti-ROR1 antibodies. Human ROR1 protein (Acrobiosystems, #RO1-H522y) was biotinylated and then captured onto SA biosensors (ForteBio, #18-5020) to reach loading level of 0.3-0.4 nm. The in-tandem competition assay format was applied and it contains two association steps. Firstly, the antigen-loaded biosensors bind to each antibody (a.k.a, First antibody, 1st Ab) with a saturating concentration of 200 nM for 180 seconds to reach equilibrium and then secondly bind to the competing antibodies (a.k.a, Second antibody, 2nd Ab) of 200 nM for 180 seconds. The second binding signals were recorded as the 100% signal of each antibody when the first antibodies were replaced by kinetics buffer. All the binding data were analyzed using ForteBio Data Analysis 11.0 software. The inhibition rate is calculated by the following formula: […]

[2] = target: T2, human ROR1 on cells (HEK293T-hROR1, PANC-1, A549) (human, UniProt Q01973 30-937); assay: flow cytometry on PANC-1 cells, MFI (APC-A Median)
T2 construct: whole, on cells; one molecule for the three cell lines; also called huROR1; cell surface ROR1
Method: (§1) Binding of recombinant anti-ROR1 antibodies to human or cynomolgus ROR1-overexpressing cells was tested by flow cytometry. In this example, ROR1-expressing cell lines are HEK293T cell lines that had been transfected to express human ROR1 on the surface (HEK293T-hu ROR1, KYINNO BIOTECHNOLOGY CO., LTD, Catalog #KC-1018), CHO-K1 cell lines that had been transfected to express cynomolgus ROR1 (CHOK1-cyno ROR1), PANC-1 (ATCC, catalog: CRL-1469) or A549 cell lines (Shanghai Institute of Biochemistry and Cell Biology, Chinese Academy of Sciences).
(§2) In brief, anti-ROR1 antibodies were serially diluted in staining buffer (PBS containing 2% FBS). Antibody solution was incubated with 1×10⁵ cells at 4° C. for 1 hour. […] After 1-hour incubation at 4° C., cells were washed twice with staining buffer and subjected to flow cytometry. PR000374 (Bench marker 1) and non-relevant IgG isotype control (Crownbio) were used as positive and negative controls, respectively.

[3] = target: T3, cynomolgus ROR1 on CHO-K1-cynoROR1 cells (cynomolgus monkey, UniProt A0A2K5WTX7 30-937); assay: flow cytometry on CHOK1-cynoROR1 cells, MFI (APC-A Median) [top panel]
T3 construct: whole, on cells
Method: as §1, §2

T1 sequence (Q01973 30-406): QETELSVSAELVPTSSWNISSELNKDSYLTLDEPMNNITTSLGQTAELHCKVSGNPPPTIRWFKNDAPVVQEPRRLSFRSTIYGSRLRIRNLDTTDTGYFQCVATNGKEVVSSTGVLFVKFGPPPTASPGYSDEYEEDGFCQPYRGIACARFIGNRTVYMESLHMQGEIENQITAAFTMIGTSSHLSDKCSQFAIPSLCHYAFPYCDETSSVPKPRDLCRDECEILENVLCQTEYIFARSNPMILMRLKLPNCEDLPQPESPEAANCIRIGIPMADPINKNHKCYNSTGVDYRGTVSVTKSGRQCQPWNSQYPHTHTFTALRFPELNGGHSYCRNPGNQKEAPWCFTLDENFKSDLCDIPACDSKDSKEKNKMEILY
T2 sequence (Q01973 30-937): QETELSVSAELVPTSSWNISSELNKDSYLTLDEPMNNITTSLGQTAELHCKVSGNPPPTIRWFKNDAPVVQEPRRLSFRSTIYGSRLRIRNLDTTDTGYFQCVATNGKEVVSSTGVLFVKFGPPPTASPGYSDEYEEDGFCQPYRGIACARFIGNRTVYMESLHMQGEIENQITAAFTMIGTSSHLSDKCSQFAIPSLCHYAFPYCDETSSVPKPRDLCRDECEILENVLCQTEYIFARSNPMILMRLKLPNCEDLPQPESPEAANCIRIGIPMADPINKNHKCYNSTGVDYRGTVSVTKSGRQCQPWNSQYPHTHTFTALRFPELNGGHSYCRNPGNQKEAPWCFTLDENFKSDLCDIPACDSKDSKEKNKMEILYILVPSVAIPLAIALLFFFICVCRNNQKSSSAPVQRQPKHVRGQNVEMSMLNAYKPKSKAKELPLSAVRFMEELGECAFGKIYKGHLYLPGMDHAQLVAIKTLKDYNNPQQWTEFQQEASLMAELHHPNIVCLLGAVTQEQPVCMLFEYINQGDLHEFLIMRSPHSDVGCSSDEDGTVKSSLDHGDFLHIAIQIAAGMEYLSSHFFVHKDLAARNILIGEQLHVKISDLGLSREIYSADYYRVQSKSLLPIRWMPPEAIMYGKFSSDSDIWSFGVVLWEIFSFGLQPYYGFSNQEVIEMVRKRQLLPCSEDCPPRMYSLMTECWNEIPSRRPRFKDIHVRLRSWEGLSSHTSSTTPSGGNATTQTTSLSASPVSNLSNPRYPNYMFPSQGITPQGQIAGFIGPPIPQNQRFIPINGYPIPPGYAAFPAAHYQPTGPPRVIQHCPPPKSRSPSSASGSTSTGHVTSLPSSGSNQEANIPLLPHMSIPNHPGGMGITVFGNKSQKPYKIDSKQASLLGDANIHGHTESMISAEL

- Inhibition (%) [1]: 111%
- EC50 (read off the curve) [2]: ~5 nM
- EC50 (read off the curve) [3]: ~5 nM
B1: PR000374 (antibody, human IgG1, kappa, V domains shown)
VH: EVQLVESGGGLVQPGRSLRLSCTASGSDINDYPITWVRQAPGQGLEWIGFINSGGSTWYASWVKGRFTISRDDSKSIAYLQMNSLKTEDTAVYYCARGYSTYYRDFNIWGQGTLVTVSS
VL: DIQMTQSPSSLSASVGDRVTINCQASQSIDSNLAWFQQKPGQPPKLLIYRASNLASGVPDRFSGSGSGTDFTLTISSLEAEDVATYYCLGGVGAVSYRTSFGGGTKVEIKR
notes: positive control; also called Bench marker 1
